# Measurements as given in the supplement of paper PMC9170038.
# Tested on: MS2 coat protein
# Assay: apparent KD of MS2 coat protein; higher = weaker reporter binding
# Details: Eterna round: R107
# Outline: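 Apparent KD per design is the median of normalised cluster binding-curve fits. Designed RNA switches transcribed on-chip from Illumina sequencing clusters were titrated with SNAP-549-labelled MS2 coat protein in twofold steps from 0.7 or 1.5 nM to 3 µM, with 0.8–1.5 h down to 10–20 min per step. Buffer: 100 mM Tris-HCl pH 7.5, 80 mM KCl, 4 mM MgCl2, without or with constant ligand.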
# [1] = input ligand: theophylline 20 uM
# [2] = input ligand: tryptophan 2.4 mM
# [3] = input ligand: theophylline 2 mM
Sequence,apparent KD of MS2 coat protein (input ligand: arginine 13.2 mM),apparent KD of MS2 coat protein [1],apparent KD of MS2 coat protein [2],apparent KD of MS2 coat protein (input ligand: none),apparent KD of MS2 coat protein [3]
GUCACACAGUAGGAUACCAGCGUGGCUUAUCCCUGAUCGUACAUGAGGAUCACCCAUGUCCGCCCUUGGCAGCCUCCUGCUCGGA [theeternabot_exclusion_MS2_Theo_B_33],12.4 nM,17.7 nM,11.9 nM,,
ACAAGAGGGAUGGAUACCAGCGACAUGAGGAUCACCCAUGUAUGAGGAUCAGCCAUGUUAUGCCCUUGGCAGCCACGAACAUCAG [SSAMULLIN],27.5 nM,30.8 nM,18.2 nM,21.2 nM,125 nM
AUCUCAUAGAGUGAUACCAGACUACAUGAGGAUCACCCAUGUUACAUUUAAAUAUCAUUUGUCCCUUGGCAGCACAUUAAGUACA [JR_Nu_ExcTheophyB_Sub019],25.6 nM,33.2 nM,23.4 nM,,
AAUCGGAGAUGAAGGAGCGCGUACAUGAGGAUCACCCAUGUAUCAAAGCUUCUCCCGUGUAUGCAGGUAGGUCGCAUUUCCACGU [Ceriedan],10.1 nM,13 nM,9.9 nM,9.12 nM,9.18 nM
GCAUCCUAGUCGGCCGCCACUGCAAUUGUAAUACUGCUACAUGAGGAUCACCCAUGUCCAUGUAGCAGGACCGGGACUAGGAUGC [SS Tryp B #16],142 nM,728 nM,,,1240 nM
CUCGAGUUAUGAGAUACCAGACUAUAGUUUACAUGAGGAUCACCCAUGUUAUGGGUGGUGGUCCCUUGGCAGCUCAUAUGUUUAA [#08 Exclusion-TheophyllineB],105 nM,220 nM,85.1 nM,,
CGAGUCCGCUGAUGGGCUAAGUCAGGUGAUACCAGCCACUCCCGCGGCCCUUGGCAGCACAUGAGGAUCACCCAUGUAGGGCUUG [Iserbele],19.2 nM,51.1 nM,23.1 nM,,
AGUCUUGAACGAAGGAGCGACGUACAUGAGGAUCACCCAUGUGUGGAGCGAAAGCUCCAACGUCAGGUAGGUCGCGUUCGAGACA [Omei Arginine B SS A v2],14.9 nM,18 nM,13.9 nM,12.8 nM,14.9 nM
AGUCUUAUAGGAAGGAGCGCAUACUUCACAUGAGGAUCACCCAUGUCAAGACGUGAGUCAGUGCAGGUAGGUCGCCUAACUAAGA [Same State - Arginine B (Freestyle 13)],27.2 nM,29.7 nM,27.7 nM,29.2 nM,32.1 nM
GGUCUCUGGAGCGAUACCAGCUUGAGUGUACUGGCCAGGUACAUGAGGAUCACCCAUGUAAGCCCUUGGCAGCGCUGCAGAGACC [#1 Exclusion - Theophylline B Attempt #16 (HarryS)],9.75 nM,15 nM,11.2 nM,,
GACAUGAGGAUCACCCAUGUGUAACCAGAAGGAGCGUGCGAAAGCACAGGUAGGUCGCUGGUGGGUUUAGGUUUAGUAGGUGUUC [SSAA NP+V+V2 #3],87.6 nM,100 nM,56.4 nM,69.2 nM,139 nM
AUCGUACCUGAUGAUACCAGCAAGUGAUCAUAACAUGAGGAUCACCCAUGUAAUCAGUGAUGCCCUUGGCAGCAUAGUCGAUACA [Same State - Theophylline B (Freestyle 5)],77.8 nM,199 nM,166 nM,,
UGUCGAAACUGAAGGAGCGAGAUGACAACAUUGGGUCUAACAUGAGGAUCACCCAUGUAAUCUCAGGUAGGUCGCAGUGACAAAA [Exclusion Arginine B GF 15],64.5 nM,123 nM,121 nM,94.7 nM,133 nM
AGUGUAUCCAUCGAUACCAGCCACCACCGAUAGACCACAUGAGGAUCACCCAUGUUGGGUGGCCCUUGGCAGCGGUGGCUGUGUA [Same State - Theophylline B Attempt #2 (HarryS)],57.5 nM,512 nM,546 nM,,
ACGUCACGUUUACUCGUGGUUUCGUUCGAUACCAGUAGCGAGAGUUACCCUUGGCAGCGACAUGAGGAUCACCCAUGUACGAAGA [XTheo A #24],12.7 nM,15 nM,12.9 nM,,
AGAACUUUGGUGGAUACCAGCUUCUGGCCAUCCUUCAAAUACAUGAGGAUCACCCAUGUUAGCCCUUGGCAGCCAACAUAGACUG [theeternabot_exclusion_MS2_Theo_B_44],21.7 nM,33 nM,21.6 nM,,
AAUUUAAACGGAAGGAGCGUCACUUAAUAUCAACAUGAGGAUCACCCAUGUAAGGGUUGUAGACAGGUAGGUCGCCGUCAUUUGA [JR_AAArginiB_Sub023],36.3 nM,50.6 nM,35.4 nM,39.2 nM,41.9 nM
ACAUUUAACUGAAGGAGCGUGAUAUACAUGAGGAUCACCCAUGUGUCUUACAUGAAUAAUUCACAGGUAGGUCGCAGACUAAUGA [JR_ExcArginiB_Sub009],30.5 nM,33.7 nM,32.1 nM,26.7 nM,39.4 nM
GUCUCUGGGAGAAGGAGCGUGAAGACAUGAGGAUCACCCAUGUAGAGGCGCCGACGGCGUUCGCAGGUAGGUCGCUCCCAGAGAC [#1 Same State - Arginine B Attempt #18 (HarryS)],18.9 nM,44.5 nM,14 nM,23.9 nM,110 nM
